Measured values taken from paper PMC4045322 (Biochemistry, 2014).

Assays:
Rsp3690 = target: T1, Rsp3690 (Cereibacter sphaeroides, UniProt Q3IVY4); assay: 4-nitrophenol release at […] nm; details: pH 8.3, 30 °C, 400 μM MnCl2, Mn enzyme
T1 sequence (Q3IVY4 1-354): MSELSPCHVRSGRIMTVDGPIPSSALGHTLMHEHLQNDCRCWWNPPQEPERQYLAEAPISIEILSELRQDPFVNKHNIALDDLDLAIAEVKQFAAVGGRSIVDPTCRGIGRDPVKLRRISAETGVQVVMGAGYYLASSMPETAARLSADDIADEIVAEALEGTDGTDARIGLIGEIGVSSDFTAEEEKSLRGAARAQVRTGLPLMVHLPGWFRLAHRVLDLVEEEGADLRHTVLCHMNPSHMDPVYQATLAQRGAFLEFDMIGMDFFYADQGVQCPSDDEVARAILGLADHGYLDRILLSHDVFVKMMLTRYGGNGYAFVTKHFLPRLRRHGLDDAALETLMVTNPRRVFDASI

purified protein [1] = substrate: CCCC(=O)Oc1ccc([N+](=O)[O-])cc1; assay: purified protein; details: pH 8.3, 30 °C, 400 μM MnCl2, Mn enzyme
purified protein [2] = substrate: CCCCCCCC(=O)Oc1ccc([N+](=O)[O-])cc1; assay: purified protein; details: pH 8.3, 30 °C, 400 μM MnCl2, Mn enzyme
purified protein [3] = substrate: CC(=O)Oc1ccc([N+](=O)[O-])cc1; assay: purified protein; details: pH 8.3, 30 °C, 400 μM MnCl2, Mn enzyme
purified protein [4] = substrate: CCCCCC(=O)Oc1ccc([N+](=O)[O-])cc1; assay: purified protein; details: pH 8.3, 30 °C, 400 μM MnCl2, Mn enzyme
purified protein [5] = substrate: CC(=O)Nc1ccc([N+](=O)[O-])cc1; assay: purified protein; details: pH 8.3, 30 °C, 400 μM MnCl2, Mn enzyme
purified protein [6] = substrate: CC(=O)Nc1ccc(Cl)cc1; assay: purified protein; format: biochemical, Cereibacter sphaeroides; details: pH 8.3, 30 °C, 400 μM MnCl2, Mn enzyme
purified protein [7] = substrate: CC(=O)Oc1c[nH]c2ccccc12; assay: purified protein; format: biochemical, Cereibacter sphaeroides; details: 50 mM Hepes pH 8.3, 1% ethanol, 30 °C, 400 μM MnCl2, Mn enzyme
purified protein [8] = substrate: CC(=O)Oc1ccc2ccccc2c1; assay: purified protein; format: biochemical, Cereibacter sphaeroides; details: pH 8.3, 30 °C, 400 μM MnCl2, Mn enzyme
purified protein [9] = substrate: CC(=O)Oc1cccc2ccccc12; assay: purified protein; format: biochemical, Cereibacter sphaeroides; details: pH 8.3, 30 °C, 400 μM MnCl2, Mn enzyme
purified protein [10] = substrate: CC(=O)Oc1ccc(OC(C)=O)cc1; assay: purified protein; format: biochemical, Cereibacter sphaeroides; details: pH 8.3, 30 °C, 400 μM MnCl2, Mn enzyme
purified protein [11] = substrate: CC(=O)Oc1ccccc1; assay: purified protein; format: biochemical, Cereibacter sphaeroides; details: pH 8.3, 30 °C, 400 μM MnCl2, Mn enzyme
purified protein [12] = substrate: CCCC(=O)Oc1ccc2c(C)cc(=O)oc2c1; assay: purified protein; format: biochemical, Cereibacter sphaeroides; details: pH 8.3, 30 °C, 400 μM MnCl2, Mn enzyme
purified protein [13] = substrate: CC(=O)OCc1ccccc1; assay: purified protein; format: biochemical, Cereibacter sphaeroides; details: pH 8.3, 30 °C, 400 μM MnCl2, Mn enzyme
purified protein [14] = substrate: CCC(=O)Oc1ccc2ccccc2c1; assay: purified protein; format: biochemical, Cereibacter sphaeroides; details: pH 8.3, 30 °C, 400 μM MnCl2, Mn enzyme
purified protein [15] = substrate: CCCCCCC(=O)Oc1ccc2c(C)cc(=O)oc2c1; assay: purified protein; format: biochemical, Cereibacter sphaeroides; details: pH 8.3, 30 °C, 400 μM MnCl2, Mn enzyme
purified protein [16] = substrate: CC(=O)Oc1ccc2c(C)cc(=O)oc2c1; assay: purified protein; format: biochemical, Cereibacter sphaeroides; details: pH 8.3, 30 °C, 400 μM MnCl2, Mn enzyme
purified protein [17] = substrate: CC(=O)Oc1cccnc1; assay: purified protein; format: biochemical, Cereibacter sphaeroides; details: pH 8.3, 30 °C, 400 μM MnCl2, Mn enzyme
purified protein [18] = substrate: CCCC(=O)Oc1cccc2ccccc12; assay: purified protein; format: biochemical, Cereibacter sphaeroides; details: pH 8.3, 30 °C, 400 μM MnCl2, Mn enzyme

COP(=O)(OC)Oc1ccc([N+](=O)[O-])cc1 [compound 26, methyl paraoxon]
Km (Rsp3690): 420 ± 40 µM

CCOP(=O)(OCC)Oc1ccc([N+](=O)[O-])cc1 [compound 27, paraoxon]
Km (Rsp3690): 110 ± 10 µM

B1: Rsp3690 (Cereibacter sphaeroides 2.4.1) (protein)
chain: T1 sequence (Q3IVY4 1-354)
Km (purified protein [1]): 56 ± 3 µM
kcat (purified protein [1]): 50 ± 1 s⁻¹
kcat/Km (purified protein [1]): 880000 ± 40000 M⁻¹ s⁻¹
Km (purified protein [2]): 33 ± 4 µM
kcat (purified protein [2]): 0.5 ± 0.01 s⁻¹
kcat/Km (purified protein [2]): 15000 ± 2000 M⁻¹ s⁻¹
Km (purified protein [3]): 520 ± 40 µM
kcat (purified protein [3]): 120 ± 3 s⁻¹
kcat/Km (purified protein [3]): 230000 ± 20000 M⁻¹ s⁻¹
Km (purified protein [4]): 48 ± 5 µM
kcat (purified protein [4]): 6.5 ± 0.2 s⁻¹
kcat/Km (purified protein [4]): 130000 ± 10000 M⁻¹ s⁻¹
Km (purified protein [5]): 650 ± 60 µM
kcat (purified protein [5]): 0.36 ± 0.02 s⁻¹
kcat/Km (purified protein [5]): 550 ± 60 M⁻¹ s⁻¹
Km (purified protein [6]): 1600 ± 100 µM
kcat (purified protein [6]): 0.1 ± 0.01 s⁻¹
kcat/Km (purified protein [6]): 63 ± 7 M⁻¹ s⁻¹
Km (purified protein [7]): 1900 ± 200 µM
kcat (purified protein [7]): 2.3 ± 0.1 s⁻¹
kcat/Km (purified protein [7]): 1200 ± 100 M⁻¹ s⁻¹
Km (purified protein [8]): 400 ± 40 µM
kcat (purified protein [8]): 40 ± 2 s⁻¹
kcat/Km (purified protein [8]): 100000 ± 10000 M⁻¹ s⁻¹
Km (purified protein [9]): 640 ± 70 µM
kcat (purified protein [9]): 4.8 ± 0.1 s⁻¹
kcat/Km (purified protein [9]): 7500 ± 100 M⁻¹ s⁻¹
Km (purified protein [10]): 900 ± 100 µM
kcat (purified protein [10]): 108 ± 4 s⁻¹
kcat/Km (purified protein [10]): 130000 ± 10000 M⁻¹ s⁻¹
Km (purified protein [11]): 2800 ± 200 µM
kcat (purified protein [11]): 30 ± 1 s⁻¹
kcat/Km (purified protein [11]): 11000 ± 1000 M⁻¹ s⁻¹
Km (purified protein [12]): 160 ± 20 µM
kcat (purified protein [12]): 4.9 ± 0.2 s⁻¹
kcat/Km (purified protein [12]): 31000 ± 4000 M⁻¹ s⁻¹
Km (purified protein [13]): 1600 ± 100 µM
kcat (purified protein [13]): 2.5 ± 0.1 s⁻¹
kcat/Km (purified protein [13]): 1600 ± 100 M⁻¹ s⁻¹
Km (purified protein [14]): 560 ± 30 µM
kcat (purified protein [14]): 83 ± 2 s⁻¹
kcat/Km (purified protein [14]): 150000 ± 10000 M⁻¹ s⁻¹
Km (purified protein [15]): 24 ± 3 µM
kcat (purified protein [15]): 0.063 ± 0.001 s⁻¹
kcat/Km (purified protein [15]): 2600 ± 300 M⁻¹ s⁻¹
Km (purified protein [16]): 240 ± 20 µM
kcat (purified protein [16]): 0.65 ± 0.02 s⁻¹
kcat/Km (purified protein [16]): 2700 ± 200 M⁻¹ s⁻¹
Km (purified protein [17]): 1800 ± 200 µM
kcat (purified protein [17]): 4.3 ± 0.3 s⁻¹
kcat/Km (purified protein [17]): 2400 ± 300 M⁻¹ s⁻¹
Km (purified protein [18]): 180 ± 20 µM
kcat (purified protein [18]): 9 ± 1 s⁻¹
kcat/Km (purified protein [18]): 50000 ± 6000 M⁻¹ s⁻¹
